Results: the DeepSol protein solubility set

Experiment: soluble on expression in E. coli; label from the status in PepcDB or PDB records

Sequence	soluble on expression in E. coli
MSLKLLAIDSATQAATCAVMDDDKLLGEITFNYKKQHSVILMSMIDDMLNTVNLKVEDLDGFVVSKGPGSFTGLRIGMSIVKGLSEGSKKPFVSVSSLDALAYNMAYTPGIICPVLDALRDNVYTALYTFEGNSLKRLTEYDAIHITELIELLKGYDSQVTFIGDAVYKFRNFFDENVENVQFAPAHLNLVRSSSLCELGMELLKSGVKDDLITSAPIYIRKSQAEREYEKRTGMSIDDEGHHHHHH	soluble
SAGNAEPPPAGAACPQDRRSCSGRAGGDRVWEDGEHPAKKLKSGGDEERREKPPKRKIVLLMAYSGKGYHGMQRNVGSSQFKTIEDDLVSALVRSGCIPENHGEDMRKMSFQRCARTDKGVSAAGQVVSLKVWLIDDILEKINSHLPSHIRILGLKRVTGGFNSKNRCDARTYCYLLPTFAFAHKDRDVQDETYRLSAETLQQVNRLLACYKGTHNFHNFTSQKGPQDPSACRYILEMYCEEPFVREGLEFAVIRVKGQSFMMHQIRKMVGLVVAIVKGYAPESVLERSWGTEKVDVPKAPGLGLVLERVHFEKYNQRFGNDGLHEPLDWAQEEGKVAAFKEEHIYPTIIGTERDERSMAQWLSTLPIHNFSATALTAGGTGAKVPSPLEGSEGDGDTD	soluble
MGSEFSIDQKRYLEGFATGVTAARAARGSLPAGSAASPSGPDAIHHQAQDRVTASGKKLNDQEKWKREQHPFDAYARLKQQAKDNAAPKPADNFRWRYYGLFYVAPAQTSYMCRLRIPNGILTSWQMAGLAYLADTLADGYAHVTTRANLQMREIAPKDAVQLLQGIESLGLWARGSGADNIRNVTGSATAGIDPQELIDTRAYARDWHFYILNERALFGLPRKFNVAFDGGGLIPTLEDTNDIAFQAVTIGDGHGVAPGVYFRLALGGITGHKDFARDTGVIVAPDEATEVADAIVRVFIEHGDRTDRNKARLKYVLDAFGFDKYLELVEDKLGRKLIRVPAEAAAPRPAQDRAAHLGVHPQQQAGMNWIGVRLATGHLTSVQMRGLAEIARSFGDGDLRLTVWQNLLISGVPDARVTDATAAIEALGLAITASPLRAGLIACTGASGCRFAAAHTKETAEAIAQYCEPRVPLDTPINIHLTGCHNSCAQHFISDIGLIGAKVAVSDEDSVEGFHIHVGGGFGVDAAIGTEVLRDVKQDDAPRVIERMLQTYLARRASPAETFLAFVRRQDAAALQQLFAYEQSPETVA	not soluble
MGSDKIHHHHHHMLLTIDDVLTQEELAIARSMLARSAWVSGLVTAGTQAAQVKNNQQVQENDPQIVNLRRLVLGALNRNALFFTATLPEKIVPPFFNRYSGETNHYGFHVDNAMRLLPDGSGYVRTDVSATLFLSDPQEYDGGELVINDTFGQHGVKLQAGSMVIYPSSSIHQVTPVTRGERLACFMFIQSMVRNPDQRRLLYEMDMALLQLRQNIGETPAVVSLTGTYHNLLRQWADS	not soluble
MLIPSKLSRPVRLDHTVVRERLLAKLSGANNFRLALVTSPAGYGKTTLVSQWAAGKNELGWYSLDEGDNQQERFASYLIAAIQQATGGHCSTSEAMAQKRQYASLTSLFAQLFIELAQWHRPLYLVIDDYHLITNPVIHDAMRFFLRHQPENFTLVVLSRNLPQLGIANLRVRDQLLEIGSQQLAFNHQEAKQFFDRRLSSPIEAAESSRMCDDVAGWATALQLIALSARQNHTSAHHSARRLAGINASHLSDYLVDEVLDNVDVSTRHFLLKSAILRSMNDALIVRVTGEENGQMRLEEIERQGLFLQRMDDTGEWFSYHPLFGSFLRQRCQWELAAELPEIHRAAAESWMEQGFPSEAIHHALAAGDAQMLRDILLNHAWGLFNHSELALLEESLKALPWESLLENPRLVLLQAWLMQSQHRYSEVNTLLARAEQEIKGVMDGTLHAEFNALRAQVAINDGNPEEAERLAKLALDELPLAWFYSRIVATSVHGEVLHCKGDLSQSLSLMQQTEQMARHHDVWHYALWSLIQQSEIQFAQGFLQAAWETQERAFQLIKEQHLEQLPMHEFLVRIRAQLLWAWARLDEAEASARSGIAVLSTFQPQQQLQCLTLLVQCSLARGDLDNARSQLNRLENLLGNGRYHCDWISNADKVRVIYWQLTGDKKSAANWLRHTPKPAFANNHFLQGQWRNIARAQILLGEFEPAEIVLEELNENARSLRLMSDLNCNLLLLNQLYWQSGRKNDAQRVLLDALQLANRTGFISHFVIEGEAMAQQLRQLIQLNTLPEMEQHRAQRILREINQHHRHKFAHFDEGFVERLLNHPDVPELIRTSPLTQREWQVLGLIYSGYSNEQIAGELAVAATTIKTHIRNLYQKLGVAHRQDAVQHAQQLLKMMGYGV	not soluble
KVNNIMKKLLSSMILIWGGLISFSNNITGPRHRIEISAGFINDRQNATMGNNIFISNSISYIPEWKIQVNKKFDVTFGPKVVLNFSNFITVSNGTAKAASSSNNANPVTITPSLILGGELDFNYSVKENLKIYTGLEVGTGIGFQISTVGSNVQNPEFRTSSKIALGVKINEKYNIAIYTADIKGLLGLEAGYTF	not soluble
GSLNITENESISTAVIDAINSGATLKDINAIPDDMMDDIYSYAYDFYNKGRIEEAEVFFRFLCIYDFYNVDYIMGLAAIYQIKEQFQQAADLYAVAFALGKNDYTPVFHTGQCQLRLKAPLKAKECFELVIQHSNDEKLKIKAQSYLDAIQ	soluble
MSLISLQSDQLLEATVGQFMIEADKVAHVQVGNNLEHALLVLTKTGYTAIPVLDPSYRLHGLIGTNMIMNSIFGLERIEFEKLDQITVEEVMLTDIPRLHINDPIMKGFGMVINNGFVCVENDEQVFEGIFTRRVVLKELNKHIRSLNKEGGSHHHHHH	soluble
KLEAMKEAEGKEPSETDIKPKRIEEPVLKGFAAPAQTAPAPVSKPAPVAKKKEVEQEAKPGLFSRLFKALGSFLFGGSEEVKEEPKQEEKKSNRDNKRNKRDRNDRRRSNQRDNREGRENRDNRRRRKPREEQANEQNEAQQPANKQQPNRSQKRKPKPQQAEKAQEPKANAKVAEKGLQLAAEARSEVKPEENKAKANAKTEKVKERRQRRKLNKSVRVKDQLADEQVEETAVKAIEPVESQVDQAVDTAADAQQDNKQGESKQRRNRRSPRHLRASGQRRRRGRDRRPNPFRLRKGGVASPEMAMGKVMPRYIPKPAPKKEERVQEETVVAIATVPAMQGGFACPEMAMGKVIIRREQPAVAEAPVVEPKVQETVEAKAESPIVEAVAPEKAEPVAVDQAPVEPIVEVAEAPVAEATTETVVEEAPVQEPVVAETVEEAATEVAVETPVAAPEMKAEVINVVAKPRASAPMTKAPGPQELREIEVAAAPFKAERYQAKGAGSQVATNRASAAMTKPNFN	not soluble
MSGTRKKALLKVIILGDSGVGKTSLMNQYVNRRFSNQYKATIGADFLTRDVNIDDRTVTLQIWDTAGQERFQSLGVAFYRGADCCVLAFDVTNAASFKSLDSWRDEFLIQASPRDPDHFPFVLLGNKVDLESQRAVSSKRAQSWCQTKGNIPYYEVSAKEALNVEAAFLAIARDALARESQETNDFPEFPDQIRLNPNQQNQQNSGCNC	not soluble
MTSMHTSVNGCKFCDIVKNKKELQLKENKSCVVINDIKPKAKNHYLVLSKQHIAKPTDLTVADVPLLEEMEKTGRELLREHLKKKGEADTVEDMLRIGFHLPPLLSVHHLHMHIIYPISDMGLISRKLTFRPGKVFKPARELIDQLKEDAGVPDPLEGNPAKDDVHEKIPAQVIS	not soluble
MSVKIDVIRVEIPEGTNVIIGQSHFIKTVEDLYETLASSSPHLKFGIAFCEASGKRLIRWDGNDEELIKLAQQTALKIGAGHTFVIYIKNGFPINVLNRIKNVEEVVRIFAATANPLQVLVAETDQGRGVIGVVDGYTPLGIETEADIKERKELLRKFGYKR	soluble
MSPGSVVVTGANRGIGLGLVQQLVKDKNIRHIIATARDVEKATELKSIKDSRVHVLPLTVTCDKSLDTFVSKVGEIVGSDGLSLLINNAGVLLSYGTNTEPNRAVIAEQLDVNTTSVVLLTQKLLPLLKNAASKESGDQLSVSRAAVITISSGLGSITDNTSGSAQFPVLAYRMSKAAINMFGRTLAVDLKDDNVLVVNFCPGWVQTNLGGKNAALTVEQSTAELISSFNKLDNSHNGRFFMRNLKPYEF	soluble
MAHHHHHHMTVKNAAKSGKYVWHAMPEEVRKSLKRGSVDETNGIKMGKKGTHATPSEPIYMEVPPDETQRKEKSPPRGMALPHVSTPNEKQPTPMPGETTNSGDVVVSQESGCVGVTHGTQSLSSSRTLKTKHVLHFRGPGWEKVLRKNKKGLESAFKKDVFEATGLEARRIEELKFEFASMLIVTFVVRRENDDEGTSKLHSDLQACAFPRTVLLYRN	soluble
